Test system: MOLP8 cells
Test: Cell viability CellTiter-Glo, MOLP8 (CD138-expressing)
Format: cell-based
Conditions: anti-CD138 ADC; for GI50: read-out: SMLA GI50
Method: HCC1954 (American Type Culture Collection (ATCC)) breast ductal carcinoma cells were plated at 2000 cells/well in flat bottom 96-well tissue culture plates (Corning) in a total volume of 90 μL tissue culture medium supplemented with 10% fetal bovine serum (ThermoFisher Scientific). Cells were treated with a 3-fold serial dilution of compound from 200 nM to 0.03 nM. Each concentration was tested in triplicate. At the time of treatment, a plate of untreated cells was evaluated using CellTiter-Glo®2.0 Luminescent Cell Viability Assay according to the manufacturers recommendations (Promega; #G9241). CellTiter-Glo® 2.0 reagent was added to the medium, incubated, and assayed on an EnVision Multilabel Reader (PerkinElmer). Values represent time zero (T0). […] Percentage growth inhibition was calculated as: [(T144−T0)/(C−T0)]×100 for concentrations for which T144>/=T0 or [(T144−T0)/T0]×100 for concentrations for which T144<T0. The dose response curve plots were generated using Prism 7 (Graphpad) and fit using nonlinear regression analysis and the log(inhibitor) versus response-variable slope (four parameters).
Anti-CD138 ADCs were tested in the CD138-expressing MOLP8 multiple myeloma cell line. Similarly, anti-EPHA2 ADCs were tested in the EPHA2-expressing PC3 prostate cancer cell line.

B1: AB205-ADL12-D2 (conjugate)
heavy: QVQLQQSGSELMMPGASVKISCKATGYTFSNYWIQRPGHGLEWIGEILPGTGRTIYNEKFKGKATFTADISSNTVQMQLSSLTSEDSAVYYCARRDYYGNFYYAMDYWGQGTSVTVSSAKTTPPSVYPLAPGSAAQTNSMVTLGCLVKGYFPEPVTVTWNSGSLSSGVHTFPAVLQSDLYTLSSSVTVPSSTWPSETVTCNVAHPASSTKVDKKIVPRDCGCKPCICTVPEVSSVFIFPPKPKDVLTITLTPKVTCVVVDISKDDPEVQFSWFVDDVEVHTAQTQPREEQFNSTFRSVSELPIMHQDWLNGKEFKCRVNSAAFPAPIEKTISKTKGRPKAPQVYTIPPPKEQMAKDKVSLTCMITDFFPEDITVEWQWNGQPAENYKNTQPIMDTDGSYFVYSKLNVQKSNWEAGNTFTCSVLHEGLHNHHTEKSLSHSPG
light: DIQMTQSTSSLSASLGDRVTISCSASQGINNYLNWYQQKPDGTVELLIYYTSTLQSGVPSRFSGSGSGTDYSLTISNLEPEDIGTYYCQQYSKLPRTFGGGTKLEIKRADAAPTVSIFPPSSEQLTSGGASVVCFLNNFYPKDINVKWKIDGSERQNGVLNSWTDQDSKDSTYSMSSTLTLTKDEYERHNSYTCEATHKTSTSPIVKSFNRNEC
With B1 the “SMLA LD50” value was >400 nM, the “SMLA Rmin (%)” value was −53.125% and the GI50 was < 0.061 nM.

B2: AB205-ADL5-D19 (conjugate)
heavy: QVQLQQSGSELMMPGASVKISCKATGYTFSNYWIQRPGHGLEWIGEILPGTGRTIYNEKFKGKATFTADISSNTVQMQLSSLTSEDSAVYYCARRDYYGNFYYAMDYWGQGTSVTVSSAKTTPPSVYPLAPGSAAQTNSMVTLGCLVKGYFPEPVTVTWNSGSLSSGVHTFPAVLQSDLYTLSSSVTVPSSTWPSETVTCNVAHPASSTKVDKKIVPRDCGCKPCICTVPEVSSVFIFPPKPKDVLTITLTPKVTCVVVDISKDDPEVQFSWFVDDVEVHTAQTQPREEQFNSTFRSVSELPIMHQDWLNGKEFKCRVNSAAFPAPIEKTISKTKGRPKAPQVYTIPPPKEQMAKDKVSLTCMITDFFPEDITVEWQWNGQPAENYKNTQPIMDTDGSYFVYSKLNVQKSNWEAGNTFTCSVLHEGLHNHHTEKSLSHSPG
light: DIQMTQSTSSLSASLGDRVTISCSASQGINNYLNWYQQKPDGTVELLIYYTSTLQSGVPSRFSGSGSGTDYSLTISNLEPEDIGTYYCQQYSKLPRTFGGGTKLEIKRADAAPTVSIFPPSSEQLTSGGASVVCFLNNFYPKDINVKWKIDGSERQNGVLNSWTDQDSKDSTYSMSSTLTLTKDEYERHNSYTCEATHKTSTSPIVKSFNRNEC
B2 was tested, and the “SMLA LD50” value was >400 nM, the “SMLA Rmin (%)” value was −46.23% and the GI50 was < 0.061 nM.

B3: AB205-ADL10-D1 (conjugate)
heavy: QVQLQQSGSELMMPGASVKISCKATGYTFSNYWIQRPGHGLEWIGEILPGTGRTIYNEKFKGKATFTADISSNTVQMQLSSLTSEDSAVYYCARRDYYGNFYYAMDYWGQGTSVTVSSAKTTPPSVYPLAPGSAAQTNSMVTLGCLVKGYFPEPVTVTWNSGSLSSGVHTFPAVLQSDLYTLSSSVTVPSSTWPSETVTCNVAHPASSTKVDKKIVPRDCGCKPCICTVPEVSSVFIFPPKPKDVLTITLTPKVTCVVVDISKDDPEVQFSWFVDDVEVHTAQTQPREEQFNSTFRSVSELPIMHQDWLNGKEFKCRVNSAAFPAPIEKTISKTKGRPKAPQVYTIPPPKEQMAKDKVSLTCMITDFFPEDITVEWQWNGQPAENYKNTQPIMDTDGSYFVYSKLNVQKSNWEAGNTFTCSVLHEGLHNHHTEKSLSHSPG
light: DIQMTQSTSSLSASLGDRVTISCSASQGINNYLNWYQQKPDGTVELLIYYTSTLQSGVPSRFSGSGSGTDYSLTISNLEPEDIGTYYCQQYSKLPRTFGGGTKLEIKRADAAPTVSIFPPSSEQLTSGGASVVCFLNNFYPKDINVKWKIDGSERQNGVLNSWTDQDSKDSTYSMSSTLTLTKDEYERHNSYTCEATHKTSTSPIVKSFNRNEC
For B3, the “SMLA LD50” value was >400 nM and the “SMLA Rmin (%)” value was −25.099%.

B4: AB205-ADL1-D14 (conjugate)
heavy: QVQLQQSGSELMMPGASVKISCKATGYTFSNYWIQRPGHGLEWIGEILPGTGRTIYNEKFKGKATFTADISSNTVQMQLSSLTSEDSAVYYCARRDYYGNFYYAMDYWGQGTSVTVSSAKTTPPSVYPLAPGSAAQTNSMVTLGCLVKGYFPEPVTVTWNSGSLSSGVHTFPAVLQSDLYTLSSSVTVPSSTWPSETVTCNVAHPASSTKVDKKIVPRDCGCKPCICTVPEVSSVFIFPPKPKDVLTITLTPKVTCVVVDISKDDPEVQFSWFVDDVEVHTAQTQPREEQFNSTFRSVSELPIMHQDWLNGKEFKCRVNSAAFPAPIEKTISKTKGRPKAPQVYTIPPPKEQMAKDKVSLTCMITDFFPEDITVEWQWNGQPAENYKNTQPIMDTDGSYFVYSKLNVQKSNWEAGNTFTCSVLHEGLHNHHTEKSLSHSPG
light: DIQMTQSTSSLSASLGDRVTISCSASQGINNYLNWYQQKPDGTVELLIYYTSTLQSGVPSRFSGSGSGTDYSLTISNLEPEDIGTYYCQQYSKLPRTFGGGTKLEIKRADAAPTVSIFPPSSEQLTSGGASVVCFLNNFYPKDINVKWKIDGSERQNGVLNSWTDQDSKDSTYSMSSTLTLTKDEYERHNSYTCEATHKTSTSPIVKSFNRNEC
B4 was tested, and the “SMLA LD50” value was >400 nM, the “SMLA Rmin (%)” value was −74.008% and the GI50 was < 0.061 nM.

B5: AB205-ADL5-D25 (conjugate)
heavy: QVQLQQSGSELMMPGASVKISCKATGYTFSNYWIQRPGHGLEWIGEILPGTGRTIYNEKFKGKATFTADISSNTVQMQLSSLTSEDSAVYYCARRDYYGNFYYAMDYWGQGTSVTVSSAKTTPPSVYPLAPGSAAQTNSMVTLGCLVKGYFPEPVTVTWNSGSLSSGVHTFPAVLQSDLYTLSSSVTVPSSTWPSETVTCNVAHPASSTKVDKKIVPRDCGCKPCICTVPEVSSVFIFPPKPKDVLTITLTPKVTCVVVDISKDDPEVQFSWFVDDVEVHTAQTQPREEQFNSTFRSVSELPIMHQDWLNGKEFKCRVNSAAFPAPIEKTISKTKGRPKAPQVYTIPPPKEQMAKDKVSLTCMITDFFPEDITVEWQWNGQPAENYKNTQPIMDTDGSYFVYSKLNVQKSNWEAGNTFTCSVLHEGLHNHHTEKSLSHSPG
light: DIQMTQSTSSLSASLGDRVTISCSASQGINNYLNWYQQKPDGTVELLIYYTSTLQSGVPSRFSGSGSGTDYSLTISNLEPEDIGTYYCQQYSKLPRTFGGGTKLEIKRADAAPTVSIFPPSSEQLTSGGASVVCFLNNFYPKDINVKWKIDGSERQNGVLNSWTDQDSKDSTYSMSSTLTLTKDEYERHNSYTCEATHKTSTSPIVKSFNRNEC
With B5 the “SMLA LD50” value was 11.669 nM, the “SMLA Rmin (%)” value was −76.736% and the GI50 was < 0.061 nM.

B6: AB205-ADL1-D4 (conjugate)
heavy: QVQLQQSGSELMMPGASVKISCKATGYTFSNYWIQRPGHGLEWIGEILPGTGRTIYNEKFKGKATFTADISSNTVQMQLSSLTSEDSAVYYCARRDYYGNFYYAMDYWGQGTSVTVSSAKTTPPSVYPLAPGSAAQTNSMVTLGCLVKGYFPEPVTVTWNSGSLSSGVHTFPAVLQSDLYTLSSSVTVPSSTWPSETVTCNVAHPASSTKVDKKIVPRDCGCKPCICTVPEVSSVFIFPPKPKDVLTITLTPKVTCVVVDISKDDPEVQFSWFVDDVEVHTAQTQPREEQFNSTFRSVSELPIMHQDWLNGKEFKCRVNSAAFPAPIEKTISKTKGRPKAPQVYTIPPPKEQMAKDKVSLTCMITDFFPEDITVEWQWNGQPAENYKNTQPIMDTDGSYFVYSKLNVQKSNWEAGNTFTCSVLHEGLHNHHTEKSLSHSPG
light: DIQMTQSTSSLSASLGDRVTISCSASQGINNYLNWYQQKPDGTVELLIYYTSTLQSGVPSRFSGSGSGTDYSLTISNLEPEDIGTYYCQQYSKLPRTFGGGTKLEIKRADAAPTVSIFPPSSEQLTSGGASVVCFLNNFYPKDINVKWKIDGSERQNGVLNSWTDQDSKDSTYSMSSTLTLTKDEYERHNSYTCEATHKTSTSPIVKSFNRNEC
With B6 the “SMLA LD50” value was 0.535 nM, the “SMLA Rmin (%)” value was −99.306% and the GI50 was < 0.061 nM.

B7: AB205-ADL5-D15 (conjugate)
heavy: QVQLQQSGSELMMPGASVKISCKATGYTFSNYWIQRPGHGLEWIGEILPGTGRTIYNEKFKGKATFTADISSNTVQMQLSSLTSEDSAVYYCARRDYYGNFYYAMDYWGQGTSVTVSSAKTTPPSVYPLAPGSAAQTNSMVTLGCLVKGYFPEPVTVTWNSGSLSSGVHTFPAVLQSDLYTLSSSVTVPSSTWPSETVTCNVAHPASSTKVDKKIVPRDCGCKPCICTVPEVSSVFIFPPKPKDVLTITLTPKVTCVVVDISKDDPEVQFSWFVDDVEVHTAQTQPREEQFNSTFRSVSELPIMHQDWLNGKEFKCRVNSAAFPAPIEKTISKTKGRPKAPQVYTIPPPKEQMAKDKVSLTCMITDFFPEDITVEWQWNGQPAENYKNTQPIMDTDGSYFVYSKLNVQKSNWEAGNTFTCSVLHEGLHNHHTEKSLSHSPG
light: DIQMTQSTSSLSASLGDRVTISCSASQGINNYLNWYQQKPDGTVELLIYYTSTLQSGVPSRFSGSGSGTDYSLTISNLEPEDIGTYYCQQYSKLPRTFGGGTKLEIKRADAAPTVSIFPPSSEQLTSGGASVVCFLNNFYPKDINVKWKIDGSERQNGVLNSWTDQDSKDSTYSMSSTLTLTKDEYERHNSYTCEATHKTSTSPIVKSFNRNEC
In the case of B7, the “SMLA LD50” value is reported as >400 nM, the “SMLA Rmin (%)” value is reported as 2.419% and the GI50 is reported as 0.258 nM.

B8: AB205-ADL1-D1 (conjugate)
heavy: QVQLQQSGSELMMPGASVKISCKATGYTFSNYWIQRPGHGLEWIGEILPGTGRTIYNEKFKGKATFTADISSNTVQMQLSSLTSEDSAVYYCARRDYYGNFYYAMDYWGQGTSVTVSSAKTTPPSVYPLAPGSAAQTNSMVTLGCLVKGYFPEPVTVTWNSGSLSSGVHTFPAVLQSDLYTLSSSVTVPSSTWPSETVTCNVAHPASSTKVDKKIVPRDCGCKPCICTVPEVSSVFIFPPKPKDVLTITLTPKVTCVVVDISKDDPEVQFSWFVDDVEVHTAQTQPREEQFNSTFRSVSELPIMHQDWLNGKEFKCRVNSAAFPAPIEKTISKTKGRPKAPQVYTIPPPKEQMAKDKVSLTCMITDFFPEDITVEWQWNGQPAENYKNTQPIMDTDGSYFVYSKLNVQKSNWEAGNTFTCSVLHEGLHNHHTEKSLSHSPG
light: DIQMTQSTSSLSASLGDRVTISCSASQGINNYLNWYQQKPDGTVELLIYYTSTLQSGVPSRFSGSGSGTDYSLTISNLEPEDIGTYYCQQYSKLPRTFGGGTKLEIKRADAAPTVSIFPPSSEQLTSGGASVVCFLNNFYPKDINVKWKIDGSERQNGVLNSWTDQDSKDSTYSMSSTLTLTKDEYERHNSYTCEATHKTSTSPIVKSFNRNEC
With B8 the “SMLA LD50” value was 0.656 nM, the “SMLA Rmin (%)” value was −100.099% and the GI50 was < 0.061 nM.
